Here are results for 1 substance from patent US20200368341A1.

The assay has as its target P. falciparum circumsporozoite protein (CSP) (Plasmodium falciparum) (UniProt P19597). Put plainly: cell-based or functional assay.
Sequence of UniProt P19597 (P19597 19-374): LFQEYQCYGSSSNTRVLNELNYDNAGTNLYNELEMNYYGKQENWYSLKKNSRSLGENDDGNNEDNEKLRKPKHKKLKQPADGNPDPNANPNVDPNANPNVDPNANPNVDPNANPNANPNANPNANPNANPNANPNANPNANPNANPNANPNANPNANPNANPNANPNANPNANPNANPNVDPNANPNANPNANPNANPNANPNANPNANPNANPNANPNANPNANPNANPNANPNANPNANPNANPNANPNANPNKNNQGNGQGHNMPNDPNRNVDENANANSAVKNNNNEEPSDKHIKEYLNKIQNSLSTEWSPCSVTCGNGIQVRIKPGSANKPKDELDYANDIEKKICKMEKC

Consider monoclonal antibody 2A10, for which the in vitro liver invasion assay: parasite burden in liver cells against the pre-immune control serum was > 2 log.
